Assay results as given in the supplement of paper PMC9876800.

System: peptide library, one residue held at a place counted from the S/T acceptor
Test: relative phosphorylation of the sub-library (ratio to the mean residue at this position); higher = residue favoured
Details: human
Outline: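 In 384-well plates, purified recombinant kinases (human or orthologue constructs) were incubated for 90 min under kinase-specific conditions with 50 μM biotinylated degenerate peptide sub-libraries and 50 μM ATP spiked with γ-32P-ATP. Each sub-library fixed a single residue at one position around a central Ser/Thr. Relative sub-library phosphorylation, measured by phosphorimaging and densitometry of streptavidin membrane spots, is given as a ratio to the mean residue at that position.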

Chain of PRKCQ, construct: Full length (Q04759 whole entry, looked up): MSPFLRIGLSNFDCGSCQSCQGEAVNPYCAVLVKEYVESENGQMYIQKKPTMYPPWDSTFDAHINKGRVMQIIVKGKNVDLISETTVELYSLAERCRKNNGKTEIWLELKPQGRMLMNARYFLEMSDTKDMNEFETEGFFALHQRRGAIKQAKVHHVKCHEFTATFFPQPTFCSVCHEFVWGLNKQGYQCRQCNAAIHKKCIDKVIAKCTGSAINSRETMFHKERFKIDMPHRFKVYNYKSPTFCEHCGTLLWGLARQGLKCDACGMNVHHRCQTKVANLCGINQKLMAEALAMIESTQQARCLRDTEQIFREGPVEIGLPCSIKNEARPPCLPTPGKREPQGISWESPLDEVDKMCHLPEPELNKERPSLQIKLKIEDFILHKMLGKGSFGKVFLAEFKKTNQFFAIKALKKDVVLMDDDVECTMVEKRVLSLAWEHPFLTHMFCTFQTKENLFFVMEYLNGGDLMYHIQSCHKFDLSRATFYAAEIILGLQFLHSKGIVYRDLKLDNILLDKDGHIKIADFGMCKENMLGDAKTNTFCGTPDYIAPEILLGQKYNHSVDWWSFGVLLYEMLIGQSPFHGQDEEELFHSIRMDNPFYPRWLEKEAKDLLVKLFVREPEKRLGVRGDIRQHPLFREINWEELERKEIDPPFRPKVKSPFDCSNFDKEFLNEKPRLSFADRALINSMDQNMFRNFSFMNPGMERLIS
Chain of CHUK, construct: Full length (O15111 whole entry, looked up): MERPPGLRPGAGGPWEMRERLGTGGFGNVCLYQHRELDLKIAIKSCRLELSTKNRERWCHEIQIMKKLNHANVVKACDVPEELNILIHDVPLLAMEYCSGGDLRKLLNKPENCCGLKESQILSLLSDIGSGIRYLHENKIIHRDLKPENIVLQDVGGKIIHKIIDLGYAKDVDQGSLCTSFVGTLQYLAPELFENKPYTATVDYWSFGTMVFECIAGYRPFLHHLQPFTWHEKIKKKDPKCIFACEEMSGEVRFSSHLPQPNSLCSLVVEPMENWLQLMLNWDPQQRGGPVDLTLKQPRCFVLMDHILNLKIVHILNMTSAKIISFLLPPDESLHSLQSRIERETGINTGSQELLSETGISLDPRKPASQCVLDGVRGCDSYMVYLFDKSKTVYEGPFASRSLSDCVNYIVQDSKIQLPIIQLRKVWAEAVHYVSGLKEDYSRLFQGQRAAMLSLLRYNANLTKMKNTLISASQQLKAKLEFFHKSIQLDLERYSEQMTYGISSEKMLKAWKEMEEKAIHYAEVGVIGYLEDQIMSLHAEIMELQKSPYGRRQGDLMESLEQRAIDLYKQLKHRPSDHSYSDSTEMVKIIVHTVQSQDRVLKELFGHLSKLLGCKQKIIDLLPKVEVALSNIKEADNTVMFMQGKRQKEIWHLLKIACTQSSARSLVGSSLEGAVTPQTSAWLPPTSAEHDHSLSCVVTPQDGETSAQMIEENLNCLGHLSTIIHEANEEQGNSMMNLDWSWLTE
Chain of ACVR1, construct: aa175-end (Q04771 175-509, looked up): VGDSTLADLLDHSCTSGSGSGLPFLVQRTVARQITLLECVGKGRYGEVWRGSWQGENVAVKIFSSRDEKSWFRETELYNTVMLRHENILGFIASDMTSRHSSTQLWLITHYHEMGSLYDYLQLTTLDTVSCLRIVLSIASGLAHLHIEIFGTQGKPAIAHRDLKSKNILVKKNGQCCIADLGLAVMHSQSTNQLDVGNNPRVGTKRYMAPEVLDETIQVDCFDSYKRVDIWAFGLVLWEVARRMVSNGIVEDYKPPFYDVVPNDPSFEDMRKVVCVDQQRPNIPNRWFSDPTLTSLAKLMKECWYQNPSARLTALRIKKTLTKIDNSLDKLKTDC

CHUK, construct: Full length (from UniProt O15111)
relative phosphorylation
Details | at +1 | at +2 | at +3 | at +4 | at -1 | at -2 | at -3 | at -4 | at -5
A fixed | 0.486 | 0.954 | 0.902 | 0.978 | 0.716 | 1.1 | 0.777 | 1.15 | 1.29
D fixed | 0.518 | 1.23 | 1.9 | 1.66 | 1.19 | 0.571 | 1.27 | 2.17 | 2.57
E fixed | 0.61 | 1.26 | 2.02 | 1.55 | 1.11 | 1.1 | 1.53 | 2.15 | 2.29
F fixed | 1.22 | 0.635 | 0.576 | 0.717 | 0.688 | 2 | 0.809 | 0.602 | 0.657
G fixed | 1.18 | 1.55 | 1.48 | 1.43 | 0.615 | 0.548 | 1.12 | 1.55 | 1.4
H fixed | 1.01 | 1.34 | 1.14 | 1.17 | 1.17 | 1.23 | 1.15 | 0.888 | 1.12
I fixed | 1.94 | 0.78 | 0.548 | 0.769 | 0.346 | 0.874 | 0.365 | 0.49 | 0.395
K fixed | 0.28 | 0.408 | 0.358 | 0.746 | 1.5 | 0.25 | 0.875 | 0.417 | 0.556
L fixed | 1.68 | 0.726 | 0.688 | 0.724 | 0.702 | 1.59 | 0.408 | 0.552 | 0.548
M fixed | 1.86 | 0.982 | 0.772 | 0.918 | 0.962 | 1.06 | 0.784 | 0.79 | 0.591
N fixed | 0.931 | 1.9 | 1.28 | 1.17 | 1.58 | 1.35 | 1.69 | 1.17 | 1.22
P fixed | 0.282 | 1.12 | 1.16 | 1.24 | 1.54 | 0.68 | 2.06 | 1.87 | 0.981
Q fixed | 0.729 | 1.25 | 1.24 | 1.13 | 1.47 | 0.804 | 1.18 | 0.978 | 0.889
R fixed | 0.162 | 0.27 | 0.26 | 0.177 | 0.641 | 0.176 | 0.728 | 0.314 | 0.476
V fixed | 1.46 | 1.1 | 0.636 | 0.667 | 0.688 | 0.644 | 0.567 | 0.547 | 0.664
W fixed | 1.29 | 0.756 | 1.04 | 0.978 | 0.784 | 0.663 | 0.704 | 0.693 | 0.791
Y fixed | 1.36 | 0.75 | 1.01 | 0.977 | 1.31 | 2.36 | 0.991 | 0.68 | 0.562
pThr fixed | 0.978 | 1.06 | 1.08 | 1.62 | 0.755 | 1.24 | 1.4 | 1.56 | 1.06
pTyr fixed | 1.1 | 1.25 | 0.908 | 1.08 | 1.55 | 5.95 | 2.02 | 1.32 | 0.984

ACVR1, construct: aa175-end (from UniProt Q04771)
relative phosphorylation
Details | at +1 | at +2 | at +3 | at +4 | at -1 | at -2 | at -3 | at -4 | at -5
A fixed | 0.713 | 0.98 | 0.912 | 0.81 | 0.74 | 0.525 | 0.897 | 0.886 | 1.13
D fixed | 1.5 | 1.84 | 1.47 | 1.69 | 1.48 | 1.93 | 1.51 | 1.64 | 1.22
E fixed | 4.11 | 1.99 | 1.81 | 1.76 | 1.68 | 6.6 | 1.78 | 1.44 | 1.15
F fixed | 0.752 | 0.713 | 0.962 | 1.01 | 0.857 | 0.467 | 0.944 | 0.88 | 1.08
G fixed | 0.737 | 1.39 | 0.909 | 0.972 | 0.515 | 0.715 | 1.22 | 1.15 | 1.12
H fixed | 0.787 | 1.15 | 0.932 | 0.918 | 1.04 | 0.55 | 1.03 | 0.953 | 1.03
I fixed | 0.87 | 0.581 | 0.762 | 0.804 | 0.985 | 0.511 | 0.885 | 0.946 | 0.896
K fixed | 0.382 | 0.709 | 0.53 | 0.676 | 0.572 | 0.406 | 0.651 | 0.77 | 0.938
L fixed | 0.728 | 0.616 | 0.856 | 0.738 | 1.35 | 0.678 | 0.899 | 0.958 | 0.861
M fixed | 0.795 | 0.683 | 0.97 | 0.955 | 1.62 | 0.89 | 1.02 | 0.94 | 0.964
N fixed | 0.771 | 0.927 | 1.04 | 1.01 | 1 | 0.714 | 1.12 | 0.803 | 0.948
P fixed | 0.375 | 1.02 | 1.1 | 0.976 | 0.49 | 0.404 | 0.937 | 0.872 | 0.91
Q fixed | 0.726 | 0.876 | 0.857 | 1.01 | 0.846 | 0.739 | 0.775 | 0.791 | 0.739
R fixed | 0.453 | 0.868 | 0.647 | 0.714 | 0.673 | 0.531 | 0.781 | 0.769 | 0.902
V fixed | 1.19 | 0.638 | 0.847 | 0.783 | 0.975 | 0.462 | 0.732 | 0.834 | 0.954
W fixed | 1.04 | 0.82 | 1.26 | 1.26 | 0.903 | 0.458 | 0.864 | 1.23 | 1.18
Y fixed | 1.07 | 1.19 | 1.14 | 0.927 | 1.27 | 0.429 | 0.972 | 1.15 | 0.997
pThr fixed | 2.36 | 1.57 | 1.05 | 1.59 | 1.04 | 1.8 | 1.41 | 1.05 | 1.06
pTyr fixed | 2.25 | 1.4 | 1.32 | 1.25 | 1.37 | 0.678 | 1.37 | 1.22 | 1.17

PRKCQ, construct: Full length (from UniProt Q04759)
relative phosphorylation
Details | at +1 | at +2 | at +3 | at +4 | at -1 | at -2 | at -3 | at -4 | at -5
A fixed | 0.568 | 0.491 | 0.841 | 0.988 | 1.06 | 0.884 | 0.837 | 1.17 | 1.13
D fixed | 0.139 | 0.187 | 0.373 | 0.434 | 0.378 | 0.333 | 0.326 | 0.642 | 0.786
E fixed | 0.184 | 0.14 | 0.362 | 0.385 | 0.315 | 0.305 | 0.344 | 0.725 | 0.58
F fixed | 1.93 | 0.626 | 0.883 | 0.614 | 0.853 | 0.689 | 0.694 | 0.748 | 0.981
G fixed | 0.411 | 0.376 | 0.887 | 1.1 | 1.6 | 1.22 | 0.871 | 1.41 | 1.21
H fixed | 0.815 | 1.45 | 1.33 | 1.6 | 1.08 | 1.15 | 1.33 | 1.2 | 1.14
I fixed | 1.46 | 0.612 | 0.762 | 0.629 | 0.309 | 0.348 | 0.329 | 0.522 | 0.769
K fixed | 1.63 | 3.19 | 1.91 | 2.4 | 1.89 | 1.89 | 1.72 | 1.51 | 1.58
L fixed | 1.16 | 0.553 | 0.969 | 0.652 | 0.64 | 0.472 | 0.462 | 0.553 | 0.857
M fixed | 1.68 | 0.819 | 0.85 | 0.721 | 0.861 | 0.612 | 0.583 | 0.784 | 0.682
N fixed | 0.441 | 0.873 | 0.782 | 1.01 | 1.21 | 1.11 | 0.915 | 1.05 | 0.899
P fixed | 0.185 | 0.274 | 0.557 | 1.23 | 0.941 | 0.462 | 0.706 | 1.1 | 1.02
Q fixed | 0.952 | 0.748 | 0.929 | 0.944 | 1.09 | 1.22 | 0.982 | 0.996 | 0.862
R fixed | 1.83 | 3.66 | 2.14 | 1.88 | 2.29 | 4.01 | 4.83 | 1.95 | 1.88
V fixed | 1.35 | 0.598 | 0.776 | 0.688 | 0.539 | 0.47 | 0.435 | 0.669 | 0.775
W fixed | 1.07 | 0.859 | 1.31 | 0.884 | 0.728 | 1.01 | 0.814 | 1.22 | 1.12
Y fixed | 1.21 | 1.54 | 1.33 | 0.827 | 1.2 | 0.822 | 0.816 | 0.757 | 0.734
pThr fixed | 0.427 | 0.275 | 0.349 | 0.36 | 0.266 | 0.481 | 0.571 | 0.689 | 0.572
pTyr fixed | 0.351 | 0.255 | 0.379 | 0.263 | 0.543 | 0.497 | 0.566 | 0.574 | 0.645
